Results taken from patent US20200399314A1 (MEDIKINE, published 2020).
Bridge positions count the residues as written; N and C are the ends. Ends that are not written are not given here.

B1: SEQ ID NO 269 (peptide)
peptide: CVVCSALGCRACVPR
B2: SEQ ID NO 251 (peptide)
peptide: AVSCNSWRCIPW
B3: SEQ ID NO 283 (peptide)
peptide: MACCTPRGCRPC
B4: SEQ ID NO 275 (peptide)
peptide: TTQSCTLRYCWLLQ
modifications: disulfide 5-10 (inferred)
B5: SEQ ID NO 246 (peptide)
peptide: GCSLMWQDGWWVCI
B6: SEQ ID NO 279 (peptide)
peptide: WVACNRVTGSCRPI
B7: SEQ ID NO 274 (peptide)
peptide: RGVICNHAGCRIWYG
B8: SEQ ID NO 23 (peptide)
peptide: YVMCSAFGCKSI
B9: SEQ ID NO 244 (peptide)
peptide: IRCRYEKQSGICLF
B10: SEQ ID NO 256 (peptide)
peptide: VRCRQNEPGGAYWCSS
B11: SEQ ID NO 286 (peptide)
peptide: CMLKCTNAICECIF
B12: SEQ ID NO 267 (peptide)
peptide: TVCCTVQGCWPCSR
B13: SEQ ID NO 254 (peptide)
peptide: RCLDLGGSVGLVCF
B14: SEQ ID NO 266 (peptide)
peptide: RVCCTSDGCRGCRQ
B15: SEQ ID NO 248 (peptide)
peptide: KGCTLQNPGSGWVCLF
B16: SEQ ID NO 272 (peptide)
peptide: RYCSPLIPGSALGCPR
B17: SEQ ID NO 253 (peptide)
peptide: FVHCSLMGCWCG
B18: SEQ ID NO 258 (peptide)
peptide: CRMMQGTYGWTCLF
modifications: disulfide 1-12 (inferred)
B19: SEQ ID NO 259 (peptide)
peptide: CILNDTIQGWVCIY
B20: SEQ ID NO 2 (peptide)
peptide: LDLTYDELLACT
B21: SEQ ID NO 271 (peptide)
peptide: LTCLIFKPGTHRHCPV
B22: SEQ ID NO 252 (peptide)
peptide: AVCCDGNSCRRC
B23: SEQ ID NO 278 (peptide)
peptide: AVSCSRLTGRCHSL
B24: SEQ ID NO 284 (peptide)
peptide: RSVCCSSYGCRACFG
B25: SEQ ID NO 282 (peptide)
peptide: HTVCCQDWGCRSCSG
B26: SEQ ID NO 280 (peptide)
peptide: SHGVCCTQSSCRSCR
B27: SEQ ID NO 24 (peptide)
peptide: FVHCTLLGCWSG
B28: SEQ ID NO 249 (peptide)
peptide: TCRLKRSGPNSWECI
B29: SEQ ID NO 285 (peptide)
peptide: CKLTCTSSTCSCVF
B30: SEQ ID NO 273 (peptide)
peptide: IRCRLDPPGSYKTCVF
modifications: disulfide 3-14 (inferred)
B31: SEQ ID NO 260 (peptide)
peptide: CTLYRSAPGVWLCIF
B32: SEQ ID NO 262 (peptide)
peptide: IVCCNMFGCHTCRN
B33: SEQ ID NO 277 (peptide)
peptide: RHACKTWYRMCIVS
B34: SEQ ID NO 30 (peptide)
peptide: WVICSALGCRSM
B35: SEQ ID NO 29 (peptide)
peptide: WVICSALGCRSL
B36: SEQ ID NO 34 (peptide)
peptide: WVICSAFGCRSM
B37: SEQ ID NO 33 (peptide)
peptide: WVICSALGCRSI
B38: SEQ ID NO 32 (peptide)
peptide: WVICSAMGCRSI
B39: SEQ ID NO 245 (peptide)
peptide: GGCSLVWADSWVCIF
B40: SEQ ID NO 265 (peptide)
peptide: RVCCTFAGCRVCHK
B41: SEQ ID NO 268 (peptide)
peptide: VCCHQTFGCYRCKQ
B42: SEQ ID NO 281 (peptide)
peptide: WVACNRLSGCCRPI
B43: SEQ ID NO 276 (peptide)
peptide: WWISCLRDLRCLEYF
B44: SEQ ID NO 270 (peptide)
peptide: VWDCFVRGWEAGVAAVGE
B45: SEQ ID NO 257 (peptide)
peptide: CVLREGAEGWECVWR
B46: SEQ ID NO 263 (peptide)
peptide: QVCCTSRGCRVCAPV
B47: SEQ ID NO 255 (peptide)
peptide: VCFNFRGTVGRHCW
B48: SEQ ID NO 261 (peptide)
peptide: CLVFDQYGNYKRRC
B49: SEQ ID NO 68 (peptide)
peptide: RRFCLRSEPTACWYV
B50: SEQ ID NO 243 (peptide)
peptide: IRFCLRSEPTACWIV
B51: SEQ ID NO 247 (peptide)
peptide: EWECRFLPGRRGCSLF
B52: SEQ ID NO 264 (peptide)
peptide: RVCCSMVGCRSCNL
B53: SEQ ID NO 250 (peptide)
peptide: WCIGQPLFRQGSCK

molecular target: T1, human IL-2Rα subunit (human, UniProt P01589 22-213, limits assumed)
T1 construct: also called CD25
T1 sequence (looked up): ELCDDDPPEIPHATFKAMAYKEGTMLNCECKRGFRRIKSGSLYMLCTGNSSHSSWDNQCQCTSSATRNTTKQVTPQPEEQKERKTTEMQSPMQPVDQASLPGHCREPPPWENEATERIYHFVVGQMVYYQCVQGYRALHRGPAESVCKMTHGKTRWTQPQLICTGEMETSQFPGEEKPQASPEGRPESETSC

Binder | IC50
B1 | < 100 µM
B2 | < 100 µM
B3 | < 100 µM
B4 | < 100 µM
B5 | < 100 µM
B6 | < 100 µM
B7 | < 100 µM
B8 | < 100 µM
B9 | < 100 µM
B10 | < 100 µM
B11 | < 100 µM
B12 | < 100 µM
B13 | < 100 µM
B14 | < 100 µM
B15 | < 100 µM
B16 | < 100 µM
B17 | < 100 µM
B18 | < 100 µM
B19 | < 100 µM
B20 | < 100 µM
B21 | < 100 µM
B22 | < 100 µM
B23 | < 100 µM
B24 | < 100 µM
B25 | < 100 µM
B26 | < 100 µM
B27 | < 100 µM

Binder | IC50
B28 | < 100 µM
B29 | < 100 µM
B30 | < 100 µM
B31 | < 100 µM
B32 | < 100 µM
B33 | < 100 µM
B34 | < 100 µM
B35 | < 100 µM
B36 | < 100 µM
B37 | < 100 µM
B38 | < 100 µM
B39 | < 100 µM
B40 | < 100 µM
B41 | < 100 µM
B42 | < 100 µM
B43 | < 100 µM
B44 | < 100 µM
B45 | < 100 µM
B46 | < 100 µM
B47 | < 100 µM
B48 | < 100 µM
B49 | < 100 µM
B50 | < 100 µM
B51 | < 100 µM
B52 | < 100 µM
B53 | < 100 µM
